Tests used:
[1] = target: Tachlorophyllase H76S/E79S/C270S triple variant (Triticum aestivum); experiment: SEC-MALS + other: dynamic light scattering
[2] = target: Triticum aestivum chlorophyllase (Tachlorophyllase), wild type (Triticum aestivum); experiment: SEC-MALS + other: dynamic light scattering

| Substance | stoichiometry N [1] | stoichiometry N [2] |
| --- | --- | --- |
| Tachlorophyllase H76S/E79S/C270S triple variant (enzyme) | 2 |  |
| Triticum aestivum chlorophyllase (Tachlorophyllase), wild type (enzyme) |  | 2 |

From PMC11659893
